Reference: patent EP4772624A1

Molecular target: human IgG1 antibody against KLH (keyhole limpet hemocyanin)
Assay: cell-based or functional assay

Q: How did the cleavage of human IgG1 antibody (SDS-PAGE, reducing; 37 C, 2 h): highest concentration ratio of antibody to fusion protein at which cleavage was confirmed (times (antibody to fusion protein)) turn out when “wild-type IdeZ-mouse Fc fusion protein (from UniProt P01868 103-324)” was run?
A: The cleavage of human IgG1 antibody (SDS-PAGE, reducing; 37 C, 2 h): highest concentration ratio of antibody to fusion protein at which cleavage was confirmed (times (antibody to fusion protein)) was 33.
